In patent US20200392472 one finds cleavage rate fold increase data, which are given here for one substance.

The series deals with T1, GeoCas9 (Geobacillus stearothermophilus).
T1 sequence: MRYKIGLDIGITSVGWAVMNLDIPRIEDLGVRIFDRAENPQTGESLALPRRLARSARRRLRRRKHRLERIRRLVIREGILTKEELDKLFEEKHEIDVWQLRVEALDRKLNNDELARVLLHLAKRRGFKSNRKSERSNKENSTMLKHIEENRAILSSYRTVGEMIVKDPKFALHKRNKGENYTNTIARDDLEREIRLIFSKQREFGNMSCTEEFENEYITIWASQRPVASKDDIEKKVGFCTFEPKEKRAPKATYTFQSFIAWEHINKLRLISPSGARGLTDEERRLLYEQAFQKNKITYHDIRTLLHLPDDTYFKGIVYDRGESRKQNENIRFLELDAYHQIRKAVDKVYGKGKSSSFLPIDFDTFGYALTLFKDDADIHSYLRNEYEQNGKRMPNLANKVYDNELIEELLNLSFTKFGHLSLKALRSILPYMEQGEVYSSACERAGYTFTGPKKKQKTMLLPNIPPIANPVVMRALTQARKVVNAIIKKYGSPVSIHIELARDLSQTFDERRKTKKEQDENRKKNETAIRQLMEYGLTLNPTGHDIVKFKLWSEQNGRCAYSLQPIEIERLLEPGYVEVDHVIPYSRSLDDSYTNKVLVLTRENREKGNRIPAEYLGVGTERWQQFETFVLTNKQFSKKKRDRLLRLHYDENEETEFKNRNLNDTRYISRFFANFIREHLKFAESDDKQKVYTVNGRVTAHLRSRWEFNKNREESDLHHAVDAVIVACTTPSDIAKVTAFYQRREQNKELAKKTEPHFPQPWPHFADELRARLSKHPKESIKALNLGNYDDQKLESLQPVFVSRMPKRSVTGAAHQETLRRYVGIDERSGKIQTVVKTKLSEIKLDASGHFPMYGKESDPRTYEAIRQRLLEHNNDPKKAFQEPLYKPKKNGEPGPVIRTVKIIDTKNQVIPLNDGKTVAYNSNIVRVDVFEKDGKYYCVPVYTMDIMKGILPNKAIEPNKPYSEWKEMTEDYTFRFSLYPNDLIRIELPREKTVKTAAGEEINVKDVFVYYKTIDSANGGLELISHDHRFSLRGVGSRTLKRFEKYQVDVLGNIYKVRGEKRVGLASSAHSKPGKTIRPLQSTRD
The series is described as follows: cleavage_in_vitro. The following applies: 21-22 nt spacer cleaves more than 5-fold faster than 20 nt; 37 C; exact substrate PAM not given.

The substance “GeoCas9 sgRNA with 20 nt spacer ; radiolabeled target DNA with CRAA PAM” registered a cleavage rate fold increase of over 5 fold.
